# B1: follistatin: BMP7 antagonist protein, natural inhibitor of BMP7 (R&D Systems, Catalog #769-FS-025) (protein, UniProt P19883 30-344, looked up)
# Follistatin: GNCWLRQAKNGRCQVLYKTELSKEECCSTGRLSTSWTEEDVNDNTLFKWMIFNGGAPNCIPCKETCENVDCGPGKKCRMNKKNKPRCVCAPDCSNITWKGPVCGLDGKTYRNECALLKARCKEQPELEVQYQGRCKKTCRDVFCPGSSTCVVDQTNNAYCVTCNRICPEPASSEQYLCGNDGVTYSSACHLRKATCLLGRSIGLAYEGKCIKAKSCEDIQCTGGKKCLWDFKVGRGRCSLCDELCPDSKSDEPVCASDNATYASECAMKEAACSSGVLLEVKHSGSCNSISEDTEEEEEDEDQDYSFPISSILEW
# Columns and labels:
# [1] = test system: CD4^+ T cells; assay: Western blotting of p38a and SMAD1/5/9 phosphorylation in CD4+ T cells treated with BMP7 or BMP7 plus follistatin; type: cell-based, mouse; settings: BMP7 plus follistatin versus BMP7 alone, 1 hour (FIG. 4A)
# Method: Protein extraction and Western blot analysis. Total protein was extracted by using NP40 lysis buffer (0.5% NP40, 250 mmol/1 NaCl, 50 mmol/1 HEPES, 5 mmol/1 ethylenediaminetetraacetic acid, and 0.5 mmol/1 egtazic acid) supplemented with protease inhibitors cocktails (Sigma-Aldrich). Lysates were centrifuged at 10,000×g for 10 minutes, and the supernatant was collected for experiments. Protein lysates (40 μg) were resolved on denaturing gels with 4-20% sodium dodecyl sulfate-polyacrylamide and transferred to nitrocellulose membranes (Bio-Rad Laboratories, Hercules, Calif.). Membranes were probed with primary antibodies directed against BMP7 (Abcam, Catalog #ab56023), Phospho-Smad1 (Ser463/465)/Smad5 (Ser463/465)/Smad9 (Ser465/467) (Cell Signaling Technologies, Catalog #13820), p38 MAPK (Cell Signaling Technologies, Catalog #8690), Vinculin (Cell Signaling Technologies, Catalog #13901), β-Actin (Cell Signaling Technologies, Catalog #3700), and a secondary antibody conjugated with horseradish peroxidase (Amersham GE Healthcare). […]
# (§1) Co-culture experiments and treatments. Viable cells were counted with a hemocytometer (0.4% Trypan blue solution) and diluted to 40,000 cells per well in 24-wells plates. […] RNA was then isolated from RAW 264.7 or CD4^+ T cells and analyzed for p38α, IL-1α, IL-1β, TNF-α, RANTES, IL-2 and IFN-γ expression with qPCR.
# [2] = test system: peritoneal macrophages; assay: qPCR in peritoneal macrophages co-cultured with 344SQR cells (transwell) with follistatin or K02288; type: cell-based, mouse; settings: 344SQR co-culture plus follistatin versus 344SQR co-culture only, 24 or 48 hours (FIG. 3J)
# [3] = test system: RAW 264.7 cells; assay: Immunofluorescence of p38a and SMAD1/5/9 phosphorylation in RAW 264.7 cells treated with BMP7 or BMP7 plus follistatin; type: cell-based, murine; settings: 24 hours (FIG. 2K)
# Method: Immunofluorescence analysis. RAW 264.7 cells were counted with a hemocytometer (0.4% Trypan blue solution), diluted to 200,000, and seeded in 4-well culture slides (Lab-Tek, Catalog #154917), and allowed to attach overnight. Cells were treated with 250 ng BMP7 (R&D Systems, Catalog #5666-BP-010) or follistatin (R&D Systems, Catalog #769-FS-025) and incubated for 24 h, and then fixed with 1% paraformaldehyde for 10 minutes, followed by a 10-minute wash in 70% ethanol at room temperature. Cells were then treated with 0.1% NP40 in PBS for 20 minutes, washed in PBS four times, and then blocked with 5% bovine serum albumin in PBS for 30 minutes. Cells were then incubated with p38a MAPK (L53F8) (Cell Signaling, Catalog #9228) and Phospho-Smad1 (Ser463/465), Smad5 (Ser463/465), and Smad9 (Ser465/467) (D5B10) (Cell Signaling, Catalog #13820) in 5% bovine serum albumin in PBS overnight according to the manufacturer's protocol. […] Slides were examined with a fluorescence microscope (Leica, Buffalo Grove, Ill.), and images were captured by a charge-coupled device camera and imported into the Advanced Spot Image analysis software package.
# [4] = test system: RAW 264.7 cells; assay: qPCR in RAW 264.7 cells co-cultured with 344SQR cells (transwell) with follistatin or K02288; type: cell-based, murine; settings: 344SQR co-culture plus follistatin versus 344SQR co-culture only, 24 or 48 hours (FIG. 3I)
# Excerpt: Quantitative polymerase chain reaction (qPCR). Total RNA was isolated from cells and tumors with Triazol (Life Technologies) according to the manufacturer's protocol. For studies of BMP7, p38α, IL-1α, IL-1β, TNF-α, RANTES, IL-2, and IFN-γ expression, mRNA was retrotranscribed with the iScript™ gDNA Clear cDNA Synthesis Kit (BioRad) and analyzed by qPCR using SYBR Green (Life Technologies) with specific primers according to the manufacturer's protocol. The comparative Ct method was used to calculate the relative abundance of mRNAs compared with ACTB (beta-actin) expression for cancer cells or CD45 expression for immune cells.
# as §1, with “plates. Cells from 344SQP, 344SQR, 344SQ ctrl, or 344SQ-shBMP7 tumors were seeded at the top inserts (24-mm Transwell with 0.4-μm pore polycarbonate membrane insert, Sigma-Aldrich), and RAW 264.7 or CD4^+ T cells were seeded at the bottom of the transwell system.” for “plates.”, “qPCR. […]” for “qPCR.”
molecule,measurement,setting,value
B1,SMAD1/5/9 activation,[1],lower
same,p38a expression,[1],higher
same,expression of p38a and p38α-regulated cytokines and chemokines,[2],higher expression
same,p38a expression,[3]; BMP7 plus follistatin compared with BMP7 alone,higher
same,SMAD1/5/9 activation,[3]; BMP7 plus follistatin versus BMP7 alone,lower
same,expression of p38a and p38α-regulated cytokines and chemokines,[4],higher expression

# Source: US20220016205A1, “METHODS OF OVERCOMING RESISTANCE TO IMMUNE CHECKPOINT INHIBITORS” (Board of Regents, The University of Texas System, priority 2018, published 2022)
